The text below walks through data of paper PMC3578147.

The target in the assay is Rev-independent (RI) HIV-1 Gag-CFP (HIV-1). The experiment in a line: FRET or BRET. A general note: Bioluminescence resonance energy transfer reports proximity on the nanometre scale.

On to “YFP-HIV.NC (HIV-1 NC protein fused to YFP) (domain or fragment)”, for which the FRET efficiency worked out at 7.8%.
“HIV.Rev-YFP (HIV-1 Rev fused to YFP) (from UniProt P04618 1-116) (natural protein)” gave an FRET efficiency of 16.4%.
